Where “and” joins values, the source holds several entries; their conditions need not be identical. Identical values can stand only once.
Conditions: Bos taurus, pH 7, Absorbance, Sodium phosphate 100 mM

Sequence of Cytochrome b wild type, P00157 (P00157 whole entry): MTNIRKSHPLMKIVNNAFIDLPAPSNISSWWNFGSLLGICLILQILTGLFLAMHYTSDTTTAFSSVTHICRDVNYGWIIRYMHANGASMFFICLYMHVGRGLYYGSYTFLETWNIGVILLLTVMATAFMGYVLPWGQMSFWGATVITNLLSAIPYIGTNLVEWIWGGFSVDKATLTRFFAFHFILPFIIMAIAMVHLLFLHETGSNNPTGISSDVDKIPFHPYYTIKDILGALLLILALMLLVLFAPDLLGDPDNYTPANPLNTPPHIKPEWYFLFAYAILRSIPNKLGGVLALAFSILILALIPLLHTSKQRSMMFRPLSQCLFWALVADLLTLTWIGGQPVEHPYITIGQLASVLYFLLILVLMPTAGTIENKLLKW

In the case of Cytochrome b wild type, P00157, the “denaturant midpoint (higher = more stable)” value (25 °C, Urea) is reported as 6.8 M and the “unfolding enthalpy (van 't Hoff)” value (Thermal) is reported as 90.1 kcal/mol and 85.6 kcal/mol.

From FireProtDB (doi:10.1016/s0301-4622(99)00119-2)
